Assays:
[1] = target: T1, human NPRA on HEK293 cells bound to BNP (human, UniProt P16860 103-134); experiment: FACS titration on BNP bound HEK NPRA cells; BNP bound HEK NPRA cells
T1 construct: mature; Receptor-ligand complex on cells
T1 sequence: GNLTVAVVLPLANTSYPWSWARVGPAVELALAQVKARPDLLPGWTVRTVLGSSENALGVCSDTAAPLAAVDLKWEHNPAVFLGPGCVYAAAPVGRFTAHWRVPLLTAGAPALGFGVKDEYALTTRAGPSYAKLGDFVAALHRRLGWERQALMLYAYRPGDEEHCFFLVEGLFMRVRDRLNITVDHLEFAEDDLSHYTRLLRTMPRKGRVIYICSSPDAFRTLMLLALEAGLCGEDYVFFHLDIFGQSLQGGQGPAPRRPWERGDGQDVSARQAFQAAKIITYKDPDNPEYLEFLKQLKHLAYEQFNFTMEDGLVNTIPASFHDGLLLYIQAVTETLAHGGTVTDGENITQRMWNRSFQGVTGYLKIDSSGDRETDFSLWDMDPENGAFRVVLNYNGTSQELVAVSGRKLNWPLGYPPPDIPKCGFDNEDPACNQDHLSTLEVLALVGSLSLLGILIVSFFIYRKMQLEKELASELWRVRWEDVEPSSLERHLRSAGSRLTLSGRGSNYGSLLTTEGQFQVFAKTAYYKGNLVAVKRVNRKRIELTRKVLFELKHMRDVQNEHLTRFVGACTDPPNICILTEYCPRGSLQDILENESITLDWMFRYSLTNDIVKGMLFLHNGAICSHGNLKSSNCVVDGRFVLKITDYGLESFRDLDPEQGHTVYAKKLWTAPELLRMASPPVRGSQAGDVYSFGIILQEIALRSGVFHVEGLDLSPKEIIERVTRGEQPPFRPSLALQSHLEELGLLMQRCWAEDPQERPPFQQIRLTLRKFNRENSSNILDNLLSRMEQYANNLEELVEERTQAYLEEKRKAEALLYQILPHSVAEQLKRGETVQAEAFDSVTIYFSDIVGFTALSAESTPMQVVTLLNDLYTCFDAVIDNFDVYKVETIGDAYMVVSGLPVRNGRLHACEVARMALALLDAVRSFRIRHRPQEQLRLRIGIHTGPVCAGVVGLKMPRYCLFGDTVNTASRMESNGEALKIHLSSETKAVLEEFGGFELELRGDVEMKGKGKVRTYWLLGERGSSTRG
T1 sequence (peptide): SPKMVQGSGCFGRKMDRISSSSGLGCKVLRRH

[2] = target: T2, human NPRA on HEK293 cells, without added ligand (human, UniProt P16066 33-1061); experiment: FACS, HEK NPRA cells without ligand
T2 construct: a signal peptide is not delimited; also called HEK NPRA cells; HEK hNPRA cells
T2 sequence: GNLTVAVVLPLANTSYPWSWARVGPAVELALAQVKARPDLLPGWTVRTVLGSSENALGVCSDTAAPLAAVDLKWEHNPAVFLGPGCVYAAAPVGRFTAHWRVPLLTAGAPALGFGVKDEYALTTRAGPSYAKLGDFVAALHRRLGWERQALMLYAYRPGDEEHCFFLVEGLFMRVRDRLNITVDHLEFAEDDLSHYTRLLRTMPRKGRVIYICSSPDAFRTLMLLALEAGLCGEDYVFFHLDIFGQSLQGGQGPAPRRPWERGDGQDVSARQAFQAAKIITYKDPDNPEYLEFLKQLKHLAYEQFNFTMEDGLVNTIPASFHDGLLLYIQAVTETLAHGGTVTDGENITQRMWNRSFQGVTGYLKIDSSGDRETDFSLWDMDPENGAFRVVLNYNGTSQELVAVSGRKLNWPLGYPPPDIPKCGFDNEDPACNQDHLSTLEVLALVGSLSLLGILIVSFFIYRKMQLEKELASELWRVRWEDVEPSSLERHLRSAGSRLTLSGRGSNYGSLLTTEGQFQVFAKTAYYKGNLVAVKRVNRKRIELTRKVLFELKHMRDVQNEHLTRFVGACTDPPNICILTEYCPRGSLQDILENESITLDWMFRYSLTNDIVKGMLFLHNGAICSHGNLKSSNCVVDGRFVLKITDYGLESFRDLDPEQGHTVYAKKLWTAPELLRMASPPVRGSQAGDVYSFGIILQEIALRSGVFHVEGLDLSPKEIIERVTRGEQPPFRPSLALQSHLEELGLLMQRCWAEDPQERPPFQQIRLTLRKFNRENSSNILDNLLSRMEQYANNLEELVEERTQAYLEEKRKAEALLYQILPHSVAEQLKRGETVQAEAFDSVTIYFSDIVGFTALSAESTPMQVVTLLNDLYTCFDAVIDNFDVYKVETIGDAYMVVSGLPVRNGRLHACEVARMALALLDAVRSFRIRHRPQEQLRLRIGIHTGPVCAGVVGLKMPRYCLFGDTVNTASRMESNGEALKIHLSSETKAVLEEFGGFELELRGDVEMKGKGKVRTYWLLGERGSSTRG

[3] = target: T3, atrial natriuretic peptide (ANP), free (UniProt P01160 124-151, 125I label in the radioligand assays of Example 10); experiment: FACS competition: Fab pre-incubated with free ANP, then HEK NPRA cells loaded with 100 nM ANP
T3 construct: mature; also called free ANP
T3 peptide (looked up): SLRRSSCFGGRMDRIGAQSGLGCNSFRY

[4] = target: T4, human NPRA on HEK293 cells bound to ANP (human, UniProt P01160 124-151); experiment: FACS, HEK NPRA cells with ANP
T4 construct: mature; Receptor-ligand complex on cells; also called HEK NPRA cells loaded with ANP; ANP-NPRA complex
T4 sequence: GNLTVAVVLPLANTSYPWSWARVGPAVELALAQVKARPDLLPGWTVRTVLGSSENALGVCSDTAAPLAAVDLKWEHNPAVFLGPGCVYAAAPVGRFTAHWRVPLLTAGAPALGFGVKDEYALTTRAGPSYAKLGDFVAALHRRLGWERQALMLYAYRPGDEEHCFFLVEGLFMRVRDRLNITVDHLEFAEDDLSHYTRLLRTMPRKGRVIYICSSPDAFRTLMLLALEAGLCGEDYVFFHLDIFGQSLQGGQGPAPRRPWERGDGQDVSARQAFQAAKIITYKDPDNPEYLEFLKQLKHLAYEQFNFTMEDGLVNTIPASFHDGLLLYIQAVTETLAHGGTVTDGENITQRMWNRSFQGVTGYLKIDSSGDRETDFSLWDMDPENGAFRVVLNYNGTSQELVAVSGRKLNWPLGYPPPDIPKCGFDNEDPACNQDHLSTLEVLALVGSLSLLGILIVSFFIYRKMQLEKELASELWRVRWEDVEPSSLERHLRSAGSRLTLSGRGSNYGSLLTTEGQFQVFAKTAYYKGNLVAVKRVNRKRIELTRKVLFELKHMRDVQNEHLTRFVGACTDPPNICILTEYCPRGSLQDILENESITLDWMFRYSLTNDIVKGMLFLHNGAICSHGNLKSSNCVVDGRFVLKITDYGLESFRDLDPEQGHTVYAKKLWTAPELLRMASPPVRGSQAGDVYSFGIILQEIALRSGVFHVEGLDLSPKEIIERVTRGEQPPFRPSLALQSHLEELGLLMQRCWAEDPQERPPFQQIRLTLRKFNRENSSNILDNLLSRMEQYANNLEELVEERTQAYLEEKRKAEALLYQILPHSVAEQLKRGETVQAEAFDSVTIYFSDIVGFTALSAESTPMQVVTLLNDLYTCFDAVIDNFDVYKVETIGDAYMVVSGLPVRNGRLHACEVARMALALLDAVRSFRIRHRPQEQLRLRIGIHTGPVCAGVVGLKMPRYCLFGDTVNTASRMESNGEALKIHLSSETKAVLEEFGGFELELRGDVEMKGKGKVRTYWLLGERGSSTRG
T4 sequence (peptide): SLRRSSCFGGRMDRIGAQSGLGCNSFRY

[5] = target: T4, human NPRA on HEK293 cells bound to ANP; experiment: cell-based or functional assay
[6] = target: T1, human NPRA on HEK293 cells bound to BNP; experiment: cell-based or functional assay
[7] = target: T4, human NPRA on HEK293 cells bound to ANP; experiment: FACS titration on ANP bound HEK NPRA cells; ANP bound HEK NPRA cells

B1: 5064 Fab (Fab, V domains shown)
VH: QVQLQQSGPGLVKPSQTLSLTCAISGDSVSSRSASWSWIRQSPGRGLEWLGRIYYRSKWYNDYAVSVKSRITINPDTSKNQFSLQLNSVTPEDTAVYYCARMDVPSFRYFDVWGQGTLVTVSS
VL: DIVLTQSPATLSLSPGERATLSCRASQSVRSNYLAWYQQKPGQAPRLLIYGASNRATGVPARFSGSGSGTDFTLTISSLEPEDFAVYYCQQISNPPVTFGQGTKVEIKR
Q: How did the EC50 [1] turn out when B1 was run?
A: The EC50 was no less than 300 nM.

Q: Does B1 bind [2]?
A: Result: no binding (tested: 20 µg/ml)

Q: Does B1 bind [3]?
A: Result: no binding (tested: 10000 nM)

Q: And the “EC50 (read off the curve)” value [4]?
A: The value was roughly 100 nM.

Q: What about the “EC50 of ANP, cGMP production in HEK NPRA cells, with 400 nM Fab” value [5] of the same binder?
A: The value was 1 nM.

Q: And the “fold decrease of the EC50 of BNP (cGMP, 400 nM Fab)” value [6]?
A: Its value is 2 fold.

Q: And the EC50 [7]?
A: The EC50 was no less than 100 nM.

Source: patent US20160168251A1 (MorphoSys, published 2016)
